The values that follow come from patent US20240309109A1 (MorphoSys, published 2024).

The target in assay [1] is CD38 (antigen of the Bioveris affinity determination) (Homo sapiens (Human), UniProt P28907 45-300, limits assumed). The experiment in a line: Bioveris, Fab format.
Assay [2] deals with T1, human CD38 Fc-fusion aa 45-300 (human, UniProt P28907 45-300).
T1 construct: Expressed in HEK293 behind a human Vkappa leader, which is left out here; also called CD38-Fc fusion protein; CD38 Fc-Fusion protein
Briefly: SPR (Biacore), Fab format. In general terms: SPR reads the build-up and loss of mass on a sensor chip optically.

Assay [3] has as its target T2, human CD38 on cells (human, UniProt P28907 1-300).
T2 construct: The cell that carried CD38 is named under assay in each row; also called CD38 on Raji, RPMI8226, OPM2, CCRF-CEM, human erythrocytes, CD38 CHO-K1 transfectants
Briefly: FACS Scatchard on RPMI8226 cells.

B1: MOR06204 Fab (Fab, V domains shown)
VH: QVQLVESGGGLVQPGGSLRLSCAASGFTFSSYAMNWVRQAPGKGLEWVSHIRKKNTSYTTEYAASVKGRFTISRDNSKNTLYLQMNSLRAEDTAVYYCAREDGSYMTDYFAYWGQGTLVTVSS
VL: DIELTQPPSVSVAPGQTARISCSGDNIGHYYVSWYQQKPGQAPVLVIYSDSNRPSGIPERFSGSNSGNTATLTISGTQAEDEADYYCQSYNGTYVFGGGTKLTVL
notes: Fab format
As a reminder, the Kd is the equilibrium constant for the complex coming apart. Higher therefore signals lower affinity. By EC50 is commonly meant the concentration needed to bring the measured effect to its halfway point. As for B1, the equilibrium dissociation constant (Kd) in assay [1] stood at 0.0585 nM; in assay [2], 22.7 nM. In assay [3], this molecule gave a half-maximal effective concentration (EC50) of 6.36 nM.

B2: MOR06214 Fab (Fab, V domains shown)
VH: QVQLVESGGGLVQPGGSLRLSCAASGFTFSSYAMNWVRQAPGKGLEWVSNIQRVGSTYYADSVKGRFTISRDNSKNTLYLQMNSLRAEDTAVYYCAREDGSYMTDYFAYWGQGTLVTVSS
VL: DIELTQPPSVSVAPGQTARISCSGDNIGHYYVSWYQQKPGQAPVLVIYSDSNRPSGIPERFSGSNSGNTATLTISGTQAEDEADYYCQSYNGTYVFGGGTKLTVL
notes: Fab format
As for B2, the Kd in assay [1] came out at 0.0936 nM; in assay [2] it was 5.26 nM. The half-maximal effective concentration (EC50) in assay [3] is 5.32 nM.

B3: MOR06200 Fab (Fab, V domains shown)
VH: QVQLVESGGGLVQPGGSLRLSCAASGFTFSSYYMNWVRQAPGKGLEWVSAISNNGNVTYYADSVKGRFTISRDNSKNTLYLQMNSLRAEDTAVYYCARDLPLVYTGFAYWGQGTLVTVSS
VL: DIELTQPPSVSVAPGQTARISCSGDNLRHYYVYWYQQKPGQAPVLVIYGDSKRPSGIPERFSGSNSGNTATLTISGTQAEDEADYYCQTYTGGASLVFGGGTKLTVL
notes: Fab format
As for B3, the Kd was 0.0599 nM in assay [1] and 7.92 nM in assay [2]. The molecule also had a 50% effective concentration (EC50) in assay [3] of 5.02 nM.

B4: MOR06183 Fab (Fab, V domains shown)
VH: QVQLVESGGGLVQPGGSLRLSCAASGFTFSSYYMNWVRQAPGKGLEWVSGINMESTRIYYADSVKGRFTISRDNSKNTLYLQMNSLRAEDTAVYYCARDLPLVYTGFAYWGQGTLVTVSS
VL: DIELTQPPSVSVAPGQTARISCSGDNLRHYYVYWYQQKPGQAPVLVIYGDSKRPSGIPERFSGSNSGNTATLTISGTQAEDEADYYCQTYTGGASLVFGGGTKLTVL
notes: Fab format
Turning to B4, the Kd was 0.026 nM in assay [1] and 13.5 nM in assay [2]. In assay [3], this molecule registered an EC50 of 28.1 nM.

B5: MOR06186 Fab (Fab, V domains shown)
VH: QVQLVESGGGLVQPGGSLRLSCAASGFTFSSYYMNWVRQAPGKGLEWVSAINLSGSAKYYADSVKGRFTISRDNSKNTLYLQMNSLRAEDTAVYYCARDLPLVYTGFAYWGQGTLVTVSS
VL: DIELTQPPSVSVAPGQTARISCSGDNLRHYYVYWYQQKPGQAPVLVIYGDSKRPSGIPERFSGSNSGNTATLTISGTQAEDEADYYCQTYTGGASLVFGGGTKLTVL
notes: Fab format
As for B5, the dissociation constant Kd in assay [1] stood at 0.00509 nM; in assay [2] it was 4.62 nM. Also, the EC50 in assay [3] was 6.47 nM.

B6: MOR06185 Fab (Fab, V domains shown)
VH: QVQLVESGGGLVQPGGSLRLSCAASGFTFSSYYMNWVRQAPGKGLEWVSAISMNGDYISYADSVKGRFTISRDNSKNTLYLQMNSLRAEDTAVYYCARDLPLVYTGFAYWGQGTLVTVSS
VL: DIELTQPPSVSVAPGQTARISCSGDNLRHYYVYWYQQKPGQAPVLVIYGDSKRPSGIPERFSGSNSGNTATLTISGTQAEDEADYYCQTYTGGASLVFGGGTKLTVL
notes: Fab format
For the molecule B6, the values for the dissociation constant (Kd) in assay [1] and in assay [2] were 0.0137 nM and 4.39 nM, respectively. Besides, the concentration for a half-maximal effect (EC50) in assay [3] worked out at 7.3 nM.

B7: MOR06184 Fab (Fab, V domains shown)
VH: QVQLVESGGGLVQPGGSLRLSCAASGFTFSSYYMNWVRQAPGKGLEWVSAISHDGNVKYYADSVKGRFTISRDNSKNTLYLQMNSLRAEDTAVYYCARDLPLVYTGFAYWGQGTLVTVSS
VL: DIELTQPPSVSVAPGQTARISCSGDNLRHYYVYWYQQKPGQAPVLVIYGDSKRPSGIPERFSGSNSGNTATLTISGTQAEDEADYYCQTYTGGASLVFGGGTKLTVL
notes: Fab format
Take B7: the results for the Kd in assay [1] and in assay [2] were 0.0662 nM and 9.68 nM, respectively. In addition, the midpoint of the response in assay [3], the EC50, lay at 4.01 nM.
